Experiment [1] has as its target T1, recombinant human CD70 (AviTag, polyhistidine tag and chicken tenascin trimerization domain fused to the … (chicken; human, UniProt P10039 110-139, limits assumed).
T1 construct: domain: trimerization domain; Expressed in Expi293, purified by IMAC and SEC; Copies 3 is inferred from the trimerization domain; not shown: AviTag; polyhistidine tag
T1 sequence: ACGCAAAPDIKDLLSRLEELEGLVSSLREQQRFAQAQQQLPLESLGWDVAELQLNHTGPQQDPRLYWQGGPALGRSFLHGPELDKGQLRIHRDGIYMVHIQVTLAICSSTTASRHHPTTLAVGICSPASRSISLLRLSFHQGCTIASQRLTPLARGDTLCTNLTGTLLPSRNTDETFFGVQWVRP
In words: SPR (Biacore 8K, 37 C): CD70 captured via anti-AviTag antibody on C1 chip, scFv-Fc as analyte; 1:1 Langmuir fit. As for the experimental part:
The antibody binding kinetics were determined by surface plasmon resonance (Biacore 8K, GE Healthcare Bio-Sciences, Pittsburgh Pa.) at 37° C. in HBS-T+ (0.01 M HEPES pH 7.4, 0.15 M NaCl, 0.05% v/v Tween20, 1 mg/mL BSA). Recombinant human CD70 diluted in HBS-T+ was captured on a C1 chip immobilized with an anti-AviTag™ antibody. Purified anti-CD70 scFv-Fc fusions were serially diluted into HBS-T+, injected at 30 uL/min for 2-4 min, dissociation monitored for 10 min then the surface regenerated with 75 mM phosphoric acid between injections. Buffer cycles were collected for each anti-CD70 scFv-Fc fusion for double-referencing purposes (double-referencing as described in Myszka, D. G. Improving biosensor analysis. J. Mol. Recognit. 12, 279-284 (1999)). Kinetic association rates (kₒₙ) and dissociation rates (koff) were obtained simultaneously by fitting the double-referenced sensorgrams globally to a 1:1 Langmuir with mass transport model using Biacore 8K Evaluation Software (GE Healthcare Bio-Sciences, Pittsburgh Pa.) then used to calculate an equilibrium dissociation constant (KD) from the kinetic rate constants (KD=koff/kₒₙ). The data was fit to a 1:1 steady state affinity model using Biacore 8K Evaluation Software to determine a steady state equilibrium dissociation constant (SS KD) as needed.
(In general: In SPR one partner is held on a chip, and binding of the other changes the refractive index at the surface.)

The target of experiment [2] is T2, human CD70 expressed on parental (WT) Jurkat cells (human, UniProt P32970 1-193).
T2 sequence: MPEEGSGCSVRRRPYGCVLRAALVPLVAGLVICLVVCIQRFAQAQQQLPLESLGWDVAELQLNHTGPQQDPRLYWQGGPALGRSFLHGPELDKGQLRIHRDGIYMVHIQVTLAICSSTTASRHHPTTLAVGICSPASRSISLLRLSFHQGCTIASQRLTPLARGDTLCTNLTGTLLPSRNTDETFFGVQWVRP
The experiment can be described thus: cell-based or functional assay.

Experiment [3] has as its target T3, recombinant biotinylated human CD70 protein (human, UniProt P32970 39-193, biotinylated (site not stated)).
T3 construct: also called recombinant biotinylated hCD70 protein
T3 sequence: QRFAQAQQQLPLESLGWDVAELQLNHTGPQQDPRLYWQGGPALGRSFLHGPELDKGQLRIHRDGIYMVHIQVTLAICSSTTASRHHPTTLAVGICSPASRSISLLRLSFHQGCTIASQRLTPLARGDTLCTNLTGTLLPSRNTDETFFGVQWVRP
The experiment can be described thus: flow cytometry: CAR-transduced Jurkat cells incubated with recombinant biotinylated human CD70, streptavidin-PE; percent of cells binding. As for the experimental part:
On Day 5, transduced cells were stained with human anti-CD69 antibody conjugated to PE-Cy7 and acquired on a flow cytometer to obtain percentage of CD69+ population for each CAR. […] Activation ratios (WT activation/KO activation) and protein binding were used to rank CARs.
Table 7: Activation ratio and protein binding of phage CARs were determined in the Jurkat screen. Activation ratio was used for in vitro characterization of CARs. Activation ratio was determined by calculating the ratio of the percentage of CD69 expression on WT Jurkat cells transduced with CD70 CAR (WT) to that on CD70 knockout Jurkat cells transduced with CD70 CAR (KO). A higher activation ratio indicates target-dependent activation. […] Protein binding values indicate the percentage of CD3+ CAR T cells that bind to human CD70 protein.

Broadly, the Kd is the constant that tells how readily two partners part at equilibrium. As a reminder, the koff is the first-order rate constant of dissociation. As a reminder, the kon is the rate constant with which the complex forms.

B1: P12B09 anti-CD70 scFv-Fc fusion (Fc fusion)
chain: EVQLLESGGGLVQPGGSLRLSCAASGFTFSQYSMSWVRQAPGKGLEWVSAISGGGVSTYYADSVKGRFTISRDNSKNTLYLQMNSLRAEDTAVYYCASDISDSGGSHWYFDYWGQGTLVTVSSGGGGSGGGGSGGGGSGGGGSELDIQMTQSPSSLSASVGDRVTITCRASQYIGRYLNWYQQKRGKAPKLLIHGATSLASGVPSRFSGSGSGTDFTLTISSLQPEDFATYYCQQSYSTTSPTFGQGTKVEIK
notes: scFv-Fc expressed in Expi293; not shown: part of the hinge and Fc from a modified human IgG2
As to B1, in experiment [1], the Kd is 4.1 nM, the koff is 0.00135 s⁻¹, the kon was determined as 330000 M⁻¹ s⁻¹ and the “t1/2” value was found to be 8.6 min.

B2: P13F04 anti-CD70 scFv-Fc fusion (Fc fusion)
chain: QVQLVQSGAEVKKPGSSVKVSCKASGGTFSSYAISWVRQAPGQGLEWMGEIIPIFGTASYAQKFQGRVTITADESTSTAYMELSSLRSEDTAVYYCARAGWDDSWFDYWGQGTLVTVSSGGGGSGGGGSGGGGSGGGGSELQSVLTQPPSASGTPGQRVTISCSGSNSNIGTNYVSWYQQLPGTAPKLLIYRSSRRPSGVPDRFSGSKSGTSASLAISGLRSEDEADYYCAAWDGSLSGHWVFGTGTKLTVL
notes: as for B1
For B2, in experiment [1], the Kd came to 205 nM, the koff came out at 0.02 s⁻¹, the kon was determined as 97700 M⁻¹ s⁻¹ and the “t1/2” value was 0.6 min.

B3: P12F02 anti-CD70 scFv-Fc fusion (Fc fusion)
chain: EVQLLESGGGLVQPGGSLRLSCAASGFTFSSYAMSWVRQAPGKGLEWVSTISGTGGTTYYADSVKGRFTISRDNSKNTLYLQMNSLRAEDTAVYYCAKVRAGIDPTASDVWGQGTLVTVSSGGGGSGGGGSGGGGSGGGGSELQSVLTQPPSASGTPGQRVTISCSGSTSNIGRNYVYWYQQLPGTAPKLLIYRTNQRPSGVPDRFSGSKSGTSASLAISGLRSEDEADYYCAAWDDSLSGRVFGTGTKLTVL
notes: as for B1
B3: in experiment [1], the Kd was 5.7 nM, the koff is 0.00155 s⁻¹, the kon turned out to be 275000 M⁻¹ s⁻¹ and the “t1/2” value was 7.4 min.

B4: P02B10 CD70-specific CAR (other)
chain: EVQLLESGGGLVQPGGSLRLSCAASGFAFSNYAMSWVRQAPGKGLEWVSAIRGGGGSTYYADSVKGRFTISRDNSKNTLYLQMNSLRAEDTAVYYCARDFISGTWYPDYWGQGTLVTVSSGGGGSGGGGSGGGGSGGGGSELQSVLTQPPSASGTPGQRVTISCSGSSSNIGSNYVYWYQQLPGTAPKLLIYRNNQRPSGVPDRFSGSKSGTSASLAISGLRSEDEADYYCAAWDDSLSGVVFGGGTKLTVLTTTPAPRPPTPAPTIASQPLSLRPEACRPAAGGAVHTRGLDFACDIYIWAPLAGTCGVLLLSLVITLYCKRGRKKLLYIFKQPFMRPVQTTQEEDGCSCRFPEEEEGGCELRVKFSRSADAPAYQQGQNQLYNELNLGRREEYDVLDKRRGRDPEMGGKPRRKNPQEGLYNELQKDKMAEAYSEIGMKGERRRGKGHDGLYQGLSTATKDTYDALHMQALPPR
notes: Chimeric antigen receptor on transduced Jurkat cells; the signal peptide is left out
Turning to B4, in experiment [2], the “Activation ratio (WT/KO)” value turned out to be 2.81. Further, in experiment [3], the “Protein binding (%)” value was determined as 77.9%.

B5: P07D03 CD70-specific CAR (other)
chain: EVQLVQSGAEVKKPGESLKISCKGSGYRFTSYWIGWVRQMPGKGLEWMGSIYPDDSDTRYSPSFQGQVTISADKSISTAYLQWSSLKASDTAMYYCASSTVDYPGYSYFDYWGQGTLVTVSSGGGGSGGGGSGGGGSGGGGSELQSVLTQPPSASGTPGQRVTISCSGSRSNIGSNYVYWYQQLPGTAPKLLIYRNNQRPSGVPDRFSGSKSGTSASLAISGLRSEDEADYYCASWDGSLSAVVFGTGTKLTVLTTTPAPRPPTPAPTIASQPLSLRPEACRPAAGGAVHTRGLDFACDIYIWAPLAGTCGVLLLSLVITLYCKRGRKKLLYIFKQPFMRPVQTTQEEDGCSCRFPEEEEGGCELRVKFSRSADAPAYQQGQNQLYNELNLGRREEYDVLDKRRGRDPEMGGKPRRKNPQEGLYNELQKDKMAEAYSEIGMKGERRRGKGHDGLYQGLSTATKDTYDALHMQALPPR
notes: as for B4
As for B5, the “Activation ratio (WT/KO)” value in experiment [2] came to 3.04. Moreover, in experiment [3], the “Protein binding (%)” value stood at 0.68%.

The record behind these values is patent US20190233528A1 (published 2019).
